The assay addresses Bacillus anthracis ribonucleotide reductase subunit NrdF (Bacillus anthracis) (UniProt Q81TB4). The assay can be described thus: crystal structure.

By stoichiometry N is commonly meant a count of units in the complex or per binding partner. In turn, “Bacillus anthracis ribonucleotide reductase subunit NrdF (from UniProt Q81TB4 1-322) (enzyme)” gave a stoichiometry N of 2.

The record behind these values is publication PMC6754363.
